Test results from article PMC12511567, “UBE2J2 sensitizes the ERAD ubiquitination cascade to changes in membrane lipid saturation” (Nature Communications, 2025).

Tests used:
[1] = target: ubiquitin-activating enzyme E1 (yeast Uba1) (yeast, UniProt P22515 1-1024); assay: cross-linking; UBE2J2 proteoliposomes (10% or 60% SFAs, P/L = 1:32,000) incubated with E1 ± BMOE; with or without pre-incubation with low OG; SDS-PAGE and fluorescence scanning; settings: both partners purified
[2] = target: the molecule itself; assay: FRET or BRET; donor UBE2J2_(A488) and acceptor UBE2J2_(A594) co-reconstituted in liposomes with 10% or 60% SFAs (P/L = 1:20,000 and 1:5000); 37 °C; 20 mM HEPES/KOH pH 7.4, 150 mM KCl, 5 mM magnesium acetate, 0.1 mM TCEP, 0.2 mg/mL BSA; excitation 480 nm, I614/I516

Chain of ubiquitin-activating enzyme E1 (yeast Uba1) (P22515 whole entry): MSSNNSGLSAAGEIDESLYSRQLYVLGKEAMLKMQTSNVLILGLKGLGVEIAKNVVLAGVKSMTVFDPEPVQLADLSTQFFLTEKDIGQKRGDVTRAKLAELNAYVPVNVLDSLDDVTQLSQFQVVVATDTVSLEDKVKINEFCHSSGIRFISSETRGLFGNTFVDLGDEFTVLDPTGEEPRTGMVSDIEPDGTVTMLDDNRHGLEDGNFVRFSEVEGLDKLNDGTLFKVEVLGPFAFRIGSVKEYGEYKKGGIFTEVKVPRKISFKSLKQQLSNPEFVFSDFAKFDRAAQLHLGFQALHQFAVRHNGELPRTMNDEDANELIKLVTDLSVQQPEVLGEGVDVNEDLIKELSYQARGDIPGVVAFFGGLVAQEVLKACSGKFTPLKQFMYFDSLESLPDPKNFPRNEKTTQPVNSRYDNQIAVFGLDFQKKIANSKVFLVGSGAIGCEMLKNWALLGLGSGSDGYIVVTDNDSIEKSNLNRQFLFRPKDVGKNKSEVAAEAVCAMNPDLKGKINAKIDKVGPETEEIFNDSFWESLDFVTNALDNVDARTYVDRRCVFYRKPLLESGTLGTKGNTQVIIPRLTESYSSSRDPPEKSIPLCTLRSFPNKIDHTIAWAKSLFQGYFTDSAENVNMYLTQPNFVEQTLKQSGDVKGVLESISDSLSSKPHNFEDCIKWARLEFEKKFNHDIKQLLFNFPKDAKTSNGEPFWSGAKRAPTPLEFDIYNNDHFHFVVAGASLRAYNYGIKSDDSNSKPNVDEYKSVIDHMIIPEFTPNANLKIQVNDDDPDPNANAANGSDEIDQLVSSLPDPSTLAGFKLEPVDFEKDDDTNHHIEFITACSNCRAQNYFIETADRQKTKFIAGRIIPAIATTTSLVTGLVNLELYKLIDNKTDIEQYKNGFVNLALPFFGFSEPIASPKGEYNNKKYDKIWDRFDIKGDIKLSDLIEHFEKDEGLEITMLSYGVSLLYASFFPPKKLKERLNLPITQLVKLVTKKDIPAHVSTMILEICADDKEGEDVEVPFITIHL

Binder	binding result [1]	binding result [2]
UBE2J2 (full-length, membrane-anchored, fluorescently labeled, reconstituted in liposomes) (enzyme, human, UniProt Q8N2K1 1-259, looked up, fluorescent label at the C-terminus by sortase A (fluorophore-conjugated GGC peptide): DL680; Alexa Fluor 488 or Alexa Fluor 594 in the FRET assay, UBE2J2, human, ubiquitin-conjugating enzyme E2 J2 with C-terminal transmembrane segment; The same construct carries different C-terminal dyes in different experiments; also called UBE2J2_(DL680); UBE2J2_(A488)) MSSTSSKRAPTTATQRLKQDYLRIKKDPVPYICAEPLPSNILEWHYVVRGPEMTPYEGGYYHGKLIFPREFPFKPPSIYMITPNGRFKCNTRLCLSITDFHPDTWNPAWSVSTILTGLLSFMVEKGPTLGSIETSDFTKRQLAVQSLAFNLKDKVFCELFPEVVEEIKQKQKAQDELSSRPQTLPLPDVVPDGETHLVQNGIQLLNGHAPGAVPNLAGLQQANRHHGLLGGALANLFVIVGFAAFAYTVKYVLRSIAQE	binds	binds
UBE2J2^F137E (membrane-anchored, reconstituted in liposomes) (enzyme, human, UniProt Q8N2K1 1-259, looked up, fluorescently labeled (UBE2J2 variants were fluorescently labeled after affinity purification), UBE2J2, human, with F137E; also called UBE2J2 F137E mutant) MSSTSSKRAPTTATQRLKQDYLRIKKDPVPYICAEPLPSNILEWHYVVRGPEMTPYEGGYYHGKLIFPREFPFKPPSIYMITPNGRFKCNTRLCLSITDFHPDTWNPAWSVSTILTGLLSFMVEKGPTLGSIETSDETKRQLAVQSLAFNLKDKVFCELFPEVVEEIKQKQKAQDELSSRPQTLPLPDVVPDGETHLVQNGIQLLNGHAPGAVPNLAGLQQANRHHGLLGGALANLFVIVGFAAFAYTVKYVLRSIAQE	binds	
